Literature values, collected in paper PMC2164963.
pKd: −log10 of the molar value.

Molecular target: EBNA-1 (Epstein-Barr virus) (UniProt P03211)

In the case of EBNA-1 (from UniProt P03211), the pKd is given as 9.00.
